Our source for the activity values is patent US20230212613.

For data set [1], the system named is TRAC TALEN right monomer (artificial). Put plainly: cell_activity. The settings on record: as TALEN pair with left monomer; primary human T cells, plateau by 72 h.
Data set [2] concerns TRAC TALEN left monomer (artificial). Put plainly: cell_activity. The settings on record: as TALEN pair with right monomer; primary human T cells, plateau by 72 h.

In data set [1], “GGTACAGGTAAGAGCAA (double strand) [TRAC TALEN right half-site]” showed an activity of 90 % indels.
“TTCCTCCTACTCACCAT (double strand) [TRAC TALEN left half-site]” came in with an activity in data set [2] of 90 % indels.
